Patent US7193055B2, “Compaction assay for assessment of respiratory disease therapy” (Genentech, Inc., priority 1992, dated 2007)
Entries after “also recorded” stand apart in the source; their conditions may differ.

Columns and labels:
[1] = test system: purulent CF sputum; test: Dynamic cone and plate rheometry of sputum; parameters: species or system human; settings: representative sputum sample, over the range of strain tested, FIG. 4
Description: Sputum rheological measurements were made at ambient temperature using the Rheometrics Fluid Rheometer (RFR-7800, Rheometrics Inc. Piscataway, N.J.) with a 0.02 radian, 25 mm radius cone and plate tool. Approximately 0.8 ml sputum was placed on the plate with 25 μL of diluent or rhDNase layered onto the top of the sputum. The cone was lowered onto the sample while the bottom plate was slowly rotated at. 5 rpm to evenly distribute the sample across the gap between the cone and plate. Drying at the sample edge was prevented by pipeting 0.1 poise silicon oil (Dow Chemical) onto the exposed edge of the cone. Rotation of the plate was stopped for five minutes to allow the sample to relax. Each preparation was tested at a deformation rate of 10 radians/sec and the percent strain was varied from 10% to 200% in 10% increments. Percent strain is defined as 100 times the distance of the shearing motion divided by the space between the cone and plate of the viscometer. The second strain value, 20% strain, was used for the comparisons between samples and treatments, being the lowest possible strain for accurate measurement. Instrument start-up frequently compromises the first data point and higher strains can damage network structures (Ferry, J Viscoelastic Properties of Polymers. 3rd ed. John Wiley and Sons, Inc. New York pg. 245-[1980]) resulting in artifacts and irreproducible data.

[2] = test system: DNA in sputum samples; test: Total DNA in pellet and supernatant fractions after compaction (DABA assay); assay type: biochemical, human; settings: all six samples, FIG. 6
Description: Sputum sample DNA content was determined by a modification of the diaminobenzoic acid (DABA) assay developed by Kissane and Robins (J Biol Chem 233: 184–188 (1958]) which quantitates total DNA concentration independent of length. Previously frozen sputum aliquants were diluted tenfold with the assay diluent (25 mM HEPES, 1 mg/ml bovine serum albumin, 4 mM CaCl^2, 4 mM MgCl^2, 0.05% polysorbate 20, and 0.01% thimerasol, at pH 7.5) and incubated at 60° C. for one hour. Diluted specimens (50 μL) were pipeted into microtiter plate wells and 50 μL of a 20% 3,5-diaminobenzoic acid hydrochloride (DABA) solution was added after which the plates were tightly sealed. […] A Cytofluor (Millipore Corp.) microtiter plate flurometer (with 390 nm excitation and 530 nm emission filters) was used to read the plates. […] The coefficient of variation for the assay was determined to be <6%.
Approximately 100 μL of sputum was transferred into a tared Eppendorf microcentrifuge tube with a positive displacement pipet (Gilson Microman®, equipped with a stainless steel shaft and plastic plunger). […] The total height of the material loaded into the capillary tubes and the pellet height were measured in millimeters. The percent pellet was calculated as the height of the pellet divided by the height of the total material loaded, multiplied by 100.

[3] = test system: purulent CF sputum; test: Compaction assay of CF sputum treated in vitro with rhDNase; assay type: biochemical, human
Description: Approximately 100 μL of sputum was transferred into a tared Eppendorf microcentrifuge tube with a positive displacement pipet (Gilson Microman®, equipped with a stainless steel shaft and plastic plunger). Either rhDNase or control diluent was added as volume equaling 50% of the exact sputum sample weight. Eppendorf tubes were vigorously vortexed for 15 seconds and then incubated for 15 minutes at ambient temperature. Aliquants of the treated sputum were loaded into Kimax-51, 1.5−1.8×90 mm melting point capillary tubes (Kimble Products) using 50 μL Drummond glass capillary tube (Microcaps). The loaded tubes were centrifuged for 20 minutes at 12,000 rpm in a Biofuge A microcentrifuge (Heraeus Sepatech GmbH) equipped with a horizontal, hematocrit-type rotor head (Heraeus Sepatech) and the supernatant/pellet interface subsequently inspected for resolution. On occasion some samples required up to 20 additional minutes to resolve the supernatant-pellet interface clearly. In these cases, all samples loaded on the rotor were centrifuged for the greater duration. The total height of the material loaded into the capillary tubes and the pellet height were measured in millimeters. The percent pellet was calculated as the height of the pellet divided by the height of the total material loaded, multiplied by 100.

[4] = rhDNase concentration in sputum after inhalation; assay type: in vivo, human; settings: inhalation of 10 mg rhDNase; sputum collected one hour after inhalation
[5] = 1 and 4 mg/mL rhDNase solutions, aerosolized (Aitken et al., Hubbard et al.); cited from earlier work
[6] = test system: DNA in sputum samples; test: Agarose gel electrophoresis of DNA length in sputum samples; assay type: biochemical, human; parameters: dose or concentration left out as unconfirmed; settings: all six sputum samples; rhDNase, 20 minutes at 25° C.
Description: The length of the DNA in sputum samples was determined qualitatively by agarose gel electrophoresis as described by Shak et al., Supra. The effect of freezing on sputum DNA length was studied by electrophoresing samples with and without one cycle of freezing at −70° C. Samples were diluted four-fold in a buffer containing 100 mM NaCl, 5 mM EDTA, 0.5% SDS, 100 μg/ml proteinase K (Sigma), 50 mM Tris, pH 8.0, and incubated for three hours at 37° C. with occasional mixing. Samples were then electrophoresed in 0.5% agarose gels and stained with ethidium bromide by standard procedures (Sambrook, et al., Molecular Cloning: A Laboratory Manual, 2nd ed. Cold Spring Harbor Laboratory Press [1989]). A 1 Kb DNA ladder having 12 major bands between 500 bp to 12 Kb (Gibco/BRL 5615SA) was used as the molecular weight standard.

[7] = catalytic amounts of rhDNase (Shak et al.); cited from earlier work

B1: rhDNase: recombinant human DNase I cloned and expressed at Genentech; used as 4 mg/ml solution in 1 mM CaCl2, 150 mM NaCl, pH 7.4 (protein, UniProt P24855 23-282, looked up)
Deoxyribonuclease-1: LKIAAFNIQTFGETKMSNATLVSYIVQILSRYDIALVQEVRDSHLTAVGKLLDNLNQDAPDTYHYVVSEPLGRNSYKERYLFVYRPDQVSAVDSYYYDDGCEPCGNDTFNREPAIVRFFSRFTEVREFAIVPLHAAPGDAVAEIDALYDVYLDVQEKWGLEDVMLMGDFNAGCSYVRPSQWSSIRLWTSPTFQWLIPDSADTTATPTHCAYDRIVVAGMLLRGAVVPDSALPFNFQAAYGLSDQLAQAISDHYPVEVMLK
[1]
  effect on elasticity modulus: more greatly affected
  effect on viscosity modulus: reduced measured values of viscosity
[2]
  distribution of total DNA between pellet and supernatant following compaction: redistribution of total DNA from the pellet to the supernatant
[3]; CF sputum sample, FIG. 7
  concentration above which rhDNase is maximally effective (fit of dose-response curve): above 1 μg/ml
  concentration below which rhDNase is minimally effective (fit of dose-response curve): below 0.1 μg/ml
[3]; in vitro, sputum
  minimum in vitro rhDNase concentration showing activity in the compaction assay: 1 μg rhDNase/mL sputum
[4]
  concentrations of rhDNase in sputum: 1000 to 20000 ng/mL
[5]
  pulmonary function in CF patients: increased pulmonary function; also recorded: improved lung function
[6]
  DNA size after hydrolysis (complete hydrolysis): less than 500 base pairs
[7]
  viscosity of purulent cystic fibrosis sputum: greatly reduced the viscosity
